“And” between values parts separate entries of the source, which are not always exact repeats. Identical values can stand only once.
Settings: Escherichia coli (strain K12), pH 7.4, Thermal, DSC, sodium phosphate 10 mM, transition: 3, reversible: yes, whole UniProt chain shown

B1: DNA-binding protein HU-alpha wild type, P0ACF0 (protein)
chain: MNKTQLIDVIAEKAELSKTQAKAALESTLAAITESLKEGDAVQLVGFGTFKVNHRAERTGRNPQTGKEIKIAAANVPAFVSGKALKDAVK
Question: With B1 as the protein, how does the “heat capacity change of unfolding” value (NaCl 1 M) read?
Answer: 0.55 kcal/mol/K and 0.9 kcal/mol/K

Question: And the “unfolding enthalpy (calorimetric)” value (NaCl 1 M)?
Answer: 49.7 kcal/mol and 39.3 kcal/mol and 33.7 kcal/mol

Question: What about the Tm (NaCl 1M) of the same protein?
Answer: 69 °C

Question: What about the “heat capacity change of unfolding” value (NaCl 1M) of the same protein?
Answer: 0.55 kcal/mol/K

Question: What about the “unfolding enthalpy (calorimetric)” value (NaCl 1M) of the same protein?
Answer: 42.8 kcal/mol

From FireProtDB (doi:10.1016/s0022-2836(03)00725-3)
